Reference: patent publication US20130316404A1

Biological target: IL-10 receptor (IL-10R) on mouse splenocytes (mouse) (UniProt Q61727)
Experiment: cell-based or functional assay

Chain of UniProt Q61727 (Q61727 17-575): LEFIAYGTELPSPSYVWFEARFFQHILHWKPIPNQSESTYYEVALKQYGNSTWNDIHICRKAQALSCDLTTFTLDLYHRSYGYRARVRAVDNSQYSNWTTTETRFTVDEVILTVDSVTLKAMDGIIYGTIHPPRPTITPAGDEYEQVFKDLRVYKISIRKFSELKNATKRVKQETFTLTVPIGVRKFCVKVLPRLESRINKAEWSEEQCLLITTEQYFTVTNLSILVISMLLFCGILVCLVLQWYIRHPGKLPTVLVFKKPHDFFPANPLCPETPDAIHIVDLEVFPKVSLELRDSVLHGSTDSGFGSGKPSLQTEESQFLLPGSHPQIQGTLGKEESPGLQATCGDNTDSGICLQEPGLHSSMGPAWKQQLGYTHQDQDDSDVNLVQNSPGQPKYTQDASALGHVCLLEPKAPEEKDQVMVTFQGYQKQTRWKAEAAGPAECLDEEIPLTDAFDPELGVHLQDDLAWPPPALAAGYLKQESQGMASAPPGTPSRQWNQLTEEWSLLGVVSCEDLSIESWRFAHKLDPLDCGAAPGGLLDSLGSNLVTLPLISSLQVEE

Substance | STAT3 phosphorylation in mouse splenocytes (Western blot), concentration giving equal signal
recombinant wildtype mouse IL-10 expressed in human HEK293 cells (from UniProt P18893 19-178) (ligand) | 100 ng/mL
stabilized recombinant IL-10 dimer (two wildtype murine IL-10 monomers joined C-terminus to N-terminus by a 7 amino acid peptide linker, one continuous polypeptide) (from UniProt P18893 19-178) (ligand) | 10 ng/mL
